Holding throughout (format): cell-based
The test system of assay [1] is LNCaP C4-2 cells. Kind of assay: Apoptosense assay (M30 ELISA, cleaved cytokeratin 18). The protocol:
LNCaP were obtained from American Type Culture Collection (Rockville, Md.) and LNCaP C4-2 cells were purchased from Urocor Inc., Oklahoma City, Okla. Cells were grown in RPMI 1640 medium supplemented with 10% (LNCaP) or 5% (LNCaP C4-2) fetal bovine serum (Hyclone, Logan, Utah) and grown in the presence of 5% CO2 at 37° C. Cells were treated with 10 μM Mifepristone (Sigma, St. Louis, Mo.) for three days or with increasing concentrations (from 200 ng/ml to 600 ng/ml) of TRAIL (Biomol Research Laboratories, Inc., Plymouth Meetings, Pa.) for varying time intervals 2, 4, 6, 8, 16, 20 and 24 hours (hr). Thus, for treatment with Mifepristone, cells were treated with Mifepristone for three days and then some cells treated (without washing) with TRAIL for indicated periods. Upon completion of the experiment, cells were harvested, and total proteins, cytosol or mitochondrial fractions were isolated as described below. At least three experiments were conducted with a minimum of four plates per treatment per experiment. Two methods were used to measure induction of apoptosis by drug treatment: the MTT assay and the Apoptosense assay. The MTT assay measures mitochondrial enzyme activity and is indicative of the number of surviving cells. […] Cells were plated in petri dishes and after completion of the treatment, cells were harvested and total protein extracted as described below. […] Color was developed by adding tetramethylbenzidine solution and the optical density of the bound antibody was determined at 450 nm on a Spectra MAX 340 microplate reader (Molecular Devices, Menlo Park, Calif.). Standard solution supplied by the supplier was used for generating standard curves.
In general terms: An ELISA detects its analyte on a solid surface through an enzyme-linked reagent.

Assay [2] has as its system LNCaP C4-2 cells. Kind of assay: MTT assay (cell survival). As to conditions: for cell survival: 400 ng/ml TRAIL and/or 10 μM Mifepristone for three days, FIG. 1B. The protocol: (§1) LNCaP were obtained from American Type Culture Collection (Rockville, Md.) and LNCaP C4-2 cells were purchased from Urocor Inc., Oklahoma City, Okla. Cells were grown in RPMI 1640 medium supplemented with 10% (LNCaP) or 5% (LNCaP C4-2) fetal bovine serum (Hyclone, Logan, Utah) and grown in the presence of 5% CO2 at 37° C. Cells were treated with 10 μM Mifepristone (Sigma, St. Louis, Mo.) for three days or with increasing concentrations (from 200 ng/ml to 600 ng/ml) of TRAIL (Biomol Research Laboratories, Inc., Plymouth Meetings, Pa.) for varying time intervals 2, 4, 6, 8, 16, 20 and 24 hours (hr). Thus, for treatment with Mifepristone, cells were treated with Mifepristone for three days and then some cells treated (without washing) with TRAIL for indicated periods. Upon completion of the experiment, cells were harvested, and total proteins, cytosol or mitochondrial fractions were isolated as described below. At least three experiments were conducted with a minimum of four plates per treatment per experiment. Two methods were used to measure induction of apoptosis by drug treatment: the MTT assay and the Apoptosense assay. The MTT assay measures mitochondrial enzyme activity and is indicative of the number of surviving cells. […] Cells were seeded in 96-well plates (6000 cells/well) and treatment was started 24 hr after seeding the cells. After completion of the treatment, cells were incubated at 37° C. with the MTT reagent for 3 hr and processed according to manufacturers instructions (Promega Corporation, Madison, Wis.). Color development was measured at 490 nm on a Spectra MAX 340 microplate reader (Molecular Devices, Menlo Park, Calif.).
For orientation: Tetrazolium assays rely on reduction of a dye to a coloured formazan, in cell work by metabolically active cells.

For the next assay, the system named is LNCaP cells. Kind of assay: MTT assay (cell survival). To be noted: for cell survival: 400 ng/ml TRAIL and/or 10 μM Mifepristone for three days, FIG. 1A. The protocol:
as §1

The mark [3] stands for this setting: 200 ng/ml TRAIL compared with 400 ng/ml, data not shown.
[4] abbreviates: 600 ng/ml TRAIL compared with 400 ng/ml, data not shown.

Consider `CC#C[C@]1(O)CC[C@H]2[C@@H]3CCC4=CC(=O)CCC4=C3[C@@H](c3ccc(N(C)C)cc3)C[C@@]21C` [Mifepristone], for which the “M30 activity (in words)” value in the assay with LNCaP C4-2 cells [1] is given as “lower M30 activity”. The cell survival result with LNCaP C4-2 cells [2] and in the assay with LNCaP cells was “little effect on survival” each time.

B1: Tumor necrosis factor α—Related Apoptosis Inducing Ligand (protein, UniProt P50591 1-281, looked up)
Tumor necrosis factor ligand …: MAMMEVQGGPSLGQTCVLIVIFTVLLQSLCVAVTYVYFTNELKQMQDKYSKSGIACFLKEDDSYWDPNDEESMNSPCWQVKWQLRQLVRKMILRTSEETISTVQEKQQNISPLVRERGPQRVAAHITGTRGRSNTLSSPNSKNEKALGRKINSWESSRSGHSFLSNLHLRNGELVIHEKGFYYIYSQTYFRFQEEIKENTKNDKQMVQYIYKYTSYPDPILLMKSARNSCWSKDAEYGLYSIYQGGIFELKENDRIFVSVTNEHLIDMDHEASFFGAFLVG
notes: 281 amino acid type II transmembrane protein of the tumor necrosis factor α family; purchased from Biomol
For B1, the M30 activity in the assay on LNCaP C4-2 cells [1] (between 8 hr to 20 hr treatment, FIG. 1D) was 1.4-2.0 U/ug. The “cell death at lower concentration of TRAIL” value in the assay on LNCaP C4-2 cells [2] (setting [3]) and in the assay with LNCaP cells (setting [3]) was “lower cell death” in each case. Also, the results for the cell survival entry with LNCaP C4-2 cells [2] and with LNCaP cells were “reduced cell survival as early as 8 hr” and “did not alter cell survival significantly”, respectively. In addition, the “apoptosis at higher dose of TRAIL” value with LNCaP C4-2 cells [2] (setting [4]) and in the assay with LNCaP cells (setting [4]) was “did not increase apoptosis significantly” throughout.

Source of the values: patent US20020115613A1, “Treatment of prostate cancer” (priority 2001, published 2002).
